Assay results reported in patent US11015206B2, “Compositions and methods comprising sequences having hydroxyphenylpyruvate dioxygenase (HPPD) activity” (PIONEER HI-BRED INTERNATIONAL, INC., priority 2014, dated 2021).

B1: P056028-B-01 (protein)
chain: MGPTPTATAAGAAVAAASAAEQAAFRLVGHRNFVRFNPRSDRFQTLAFHHVELWCADAASAAGRFSFALGVPLAARSDLSTGNSAHASLLLRSGSLSLLFTAPYAHGADAATAALPSFSAAAARRFAADHGLAVRAVALRVADAEDAFRASVAAGARPAFGPVDLGRGFRLAEVELYGDVVLRYVSYPDGAAGEPFLPGFEGVASPGAADYGLSRFDHIVGNVPELAPAAAYMAGFTGFHEFAEFTTEDVGTTESGLNSMALANNSENVLLPLNEPVHGTKRRSQIQTFLDHHGGPGVQHIALASDDVLRTLREMRARSAMGGFEFLPPPLSDYYDGVRKCAGDVLTEAQINECQELGVMVDRDDEGVLLQIFTKPVGDRPTFFLELIQRIGCMEKDEKGQEYQKGGCGGFGKGNFGQLFKSIEDYEKSLEAKQAAAAATAQGS
modifications: Zea mays variant form created by artificial means.
B2: P056028-B-05 (protein)
chain: MGPTPTATAAGAAVAAASAAEQAAFRLVGHRNFVRFNPRSDRFQTLAFHHVELWCADAASAAGRFSFALGVPLAARSDLSTGNSAHASLLLRSGSLSLLFTAPYAHGADAATAALPSFSAAAARRFAADHGLAVRAVALRVADAEDAFRASVAAGARPAFGPVDLGRGFRLAEVELYGDVVLRYVSYPDGAAGEPFLPGFEGVASPGAADYGLSRFDHIVGNVPELAPAAAYMAGFTGFHEFAEFTTEDVGTTESGLNSMALANNSENVLLPLNEPVHGTRRRSQIQTFLDHHGGPGVQHIALASDDVLRTLREMRARSAMGGFEFLPPPLSDYYDGVRKCAGDVLTEAQINECQELGVMVDRDDEGVLLQIFTKPVGDRPTFFLELIQRIGCMEKDEKGQEYQKGGCGGFGKGNFGQLFKSIEDYEKSLEAKQAAAAATAQGS
modifications: Zea mays variant form created by artificial means.
B3: P056028-B-03 (protein)
chain: MGPTPTATAAGAAVAAASAAEQAAFRLVGHRNFVRFNPRSDRFQTLAFHHVELWCADAASAAGRFSFALGVPLAARSDLSTGNSAHASLLLRSGSLSLLFTAPYAHGADAATAALPSFSAAAARRFAADHGLAVRAVALRVADAEDAFRASVAAGARPAFGPVDLGRGFRLAEVELYGDVVLRYVSYPDGAAGEPFLPGFEGVASPGAADYGLNRFDHIVGNVPELAPAAAYMAGFTGFHEFAEFTTEDVGTTESGLNSMALANNSENVLLPLNEPVHGTKRRSQIQTFLDHHGGPGVQHIALASDDVLRTLREMRARSAMGGFEFLPPPLSDYYDGVRRCAGDVLTEAQINECQRLGVMVDRDDEGVLLQIFTKPVGDRPTFFLEIIQRIGCMEKDEKGQEYQKGGCGGFGKGNFGQLFKSIEDYEKSLEAKQAAAAATAQGS
modifications: Zea mays variant form created by artificial means.
B4: P056028-B-06 (protein)
chain: MGPTPTATAAGAAVAAASAAEQAAFRLVGHRNFVRFNPRSDRFQTLAFHHVELWCADAASAAGRFSFALGVPLAARSDLSTGNSAHASLLLRSGSLSLLFTAPYAHGADAATAALPSFSAAAARRFAADHGLAVRAVALRVADAEDAFRASVAAGARPAFGPVDLGRGFRLAEVELYGDVVLRYVSYPDGAAGEPFLPGFEGVASPGAADYGLSRFDHIVGNVPELAPAAAYMAGFTGFHEFAEFTTEDVGTTESGLNSMALANNSENVLLPLNEPVHGTKRRSQIQTFLDHHGGPGVQHIALASDDVLRTLREMRARSAMGGFEFLPPPLSDYYDGVRRCAGDVLTEAQINECQKLGVMVDRDDEGVLLQIFTKPVGDRPTFFLEIIQRIGCMEKDEKGQEYQKGGCGGFGKGNFGQLFKSIEDYEKSLEAKQAAAAATAQGS
modifications: Zea mays variant form created by artificial means.
B5: P056028-B-10 (protein)
chain: MGPTPTATAAGAAVAAASAAEQAAFRLVGHRNFVRFNPRSDRFQTLAFHHVELWCADAASAAGRFSFALGVPLAARSDLSTGNSAHASLLLRSGSLSLLFTAPYAHGADAATAALPSFSAAAARRFAADHGLAVRAVALRVADAEDAFRASVAAGARPAFGPVDLGRGFRLAEVELYGDVVMRYVSYPDGAAGEPFLPGFEGVASPGAADYGLSRFDHIVGNVPELAPAAAYMAGFTGFHEFAEFTTEDVGTTESGLNSMALANNSENVLLPLNEPVHGTKRRSQIQTFLDHHGGPGVQHIALASDDVLRTLREMRARSAMGGFEFLPPPLSDYYDGVRRCAGDVLTEAQINECQELGVMVDRDDEGVLLQIFTKPVGDRPTFFVEIIQRIGCMEKDEKGQEYQKGGCGGFGKGNFGQLFKSIEDYEKSLEAKQAAAAATAQGS
modifications: Zea mays variant form created by artificial means.
B6: P056028-B-04 (protein)
chain: MGPTPTATAAGAAVAAASAAEQAAFRLVGHRNFVRFNPRSDRFQTLAFHHVELWCADAASAAGRFSFALGVPLAARSDLSTGNSAHASLLLRSGSLSLLFTAPYAHGADAATAALPSFSAAAARRFAADHGLAVRAVALRVADAEDAFRASVAAGARPAFGPVDLGRGFRLAEVELYGDVVMRYVSYPDGAAGEPFLPGFEGVASSGAADYGLNRFDHIVGNVPELAPAAAYMAGFTGFHEFAEFTTEDVGTTESGLNSMALANNSENVLLPLNEPVHGTKRRSQIQTFLDHHGGPGVQHIALASDDVLRTLREMRARSAMGGFEFLPPPLSDYYDGVRKCAGDVLTEAQINECQELGVMVDRDDEGVLLQIFTKPVGDRPTFFLEIIQRIGCMEKDEKGQEYQKGGCGGFGKGNFGQLFKSIEDYEKSLEAKQAAAAATAQGS
modifications: Zea mays variant form created by artificial means.

Tests used:
Assay type in all cases: biochemical, Z. mays
[1] = system: 4-hydroxyphenylpyruvate dioxygenase (HPPD); experiment: ON rate ratio: HPPD reaction rate with vs without inhibitor in the 70 to 90 second interval; details: Table 7; tembotrione; combinatorial variants
Text: (§1) Higher KD (reduced affinity or increased insensitivity) can be attained with a numerically smaller ON rate, a larger OFF rate or both. To detect and quantify changes in kON and kOFF, observations of the time course of an HPPD reaction as inhibitor binds to and inactivates the enzyme (kON), or is released from a pre-formed enzyme-inhibitor complex (kOFF) were used, as shown in FIGS. 13A and 13B. In practice, a quantitative indicator of kON was obtained by monitoring the time courses of HPPD reactions containing 60 or 120 nM HPPD and 100 μM HPP in the presence and absence of 4 μM inhibitor (e.g., mesotrione or tembotrione). The ratio of the reaction rate with inhibitor to that without inhibitor during the 70 to 90 second interval of the reaction was termed the “ON rate ratio”. The smaller the actual kON, the more slowly the HPPD reaction decelerates and the higher the value is for the ON rate ratio. FIGS. 13A and 13B illustrate the contrasting reaction velocity in the 70-90 sec interval for maize wild-type HPPD (FIG. 13A) versus an improved variant (SEQ ID NO:78) (FIG. 13B).

[2] = system: 4-hydroxyphenylpyruvate dioxygenase (HPPD); experiment: Insensitivity parameter (ON × OFF) and trait fitness (ON × OFF × kcat/KM or × kcat); design: key to ON × OFF / Insensitivity, mesotrione, ON × OFF / Insensitivity, tembotrione, ON × OFF / Insensitivity, topramezone, ON × OFF / Insensitivity, sulcotrione, ON × OFF / Insensitivity, isoxaflutole (DKN), ON × OFF: insensitivity = ON rate ratio × OFF rate ratio (surrogate for KD)
Text: Because substrate and inhibitors bind in the same site, the high concentration of substrate present may competitively trap the inhibitor and prevent it from binding again. To be sure that improvement in ON rates is being taken into account, the ON and OFF rate ratios were multiplied, creating an “insensitivity parameter” that is a surrogate for KD. KD is expressed as kOFF/kON, but because the ON rate ratio is an inverse parameter (the higher the value of ON rate ratio, the lower the value of the represented phenomenon, kON), it is appropriate to multiply ON and OFF rate ratios rather then divide OFF rate ratio by ON rate ratio. Another parameter, which quantifies the combined catalytic and insensitivity properties of the enzyme is kcat/KM×ON rate ratio×OFF rate ratio, and is termed “trait fitness”. This parameter is intended to have a meaning similar to the commonly used expression kcat/KM×Ki.

[3] = system: 4-hydroxyphenylpyruvate dioxygenase (HPPD); experiment: OFF rate ratio: release of inhibitor from pre-formed enzyme-inhibitor complex; details: Table 7; tembotrione; combinatorial variants
Method: A quantitative indicator of kOFF can be obtained by observing the time course of an HPPD reaction as inhibitor is released from a pre-formed enzyme-inhibitor complex. HPPD and inhibitor were incubated together at concentrations of 7.2 and 8 μM, respectively. Incubations with the same concentrations of enzyme but no inhibitor were done in parallel. After 1 hr at room temperature, 5 to 10 μl of the enzyme-inhibitor complex was dispensed into the wells of the assay plate. Reactions were started with the addition of 290 to 295 μl of 25 mM Hepes, pH 7, 2 mM ascorbate, 10 μM FeSO4, 100 μM HPP and 50 nM HGD. The reactions were monitored at 320 nm for 12 min. Reaction velocity accelerates as inhibitor is released from the enzyme until a steady state is reached, during which the reaction velocity is constant. The ratio of the steady state rate in mixtures containing herbicidal inhibitor to the initial velocity of mixtures lacking inhibitor is termed the “OFF rate ratio”.
Another parameter to record is the time span required for the reactions with inhibitor to reach the steady state. FIGS. 13C and 13D illustrate the contrasting time span in which maize wild-type HPPD (FIG. 13C) and an improved variant (SEQ ID NO:78) (FIG. 13D) dissociated from mesotrione, as indicated by the accelerating reaction rates. The plateau of absorbance is due to exhaustion of the substrate. With the improved variant, not only was the steady state attained in a shorter time span (80 sec for the variant versus 280 sec for wild type), the velocity attained was twice as high as with wild type, though the enzymes were present at the same concentration (240 nM). This is because a larger fraction of the variant enzyme is free of inhibitor compared to the wild-type enzyme, and the kcat for both is nearly the same, about 220 min^−1.

[4] = system: 4-hydroxyphenylpyruvate dioxygenase (HPPD); experiment: Estimate of kcat from initial rate at saturating hydroxyphenylpyruvate without inhibitor (ON rate ratio assay)
Text: as §1
Thirty nine variants were desensitized to tembotrione compared with the backbone enzyme, Round 7, variant 9070 (SEQ ID NO:2) and all were desensitized compared with maize wild type HPPD (SEQ ID NO:1). Because the assay for ON rate ratio includes an initial rate measurement at saturating hydroxyphenylpyruvate without inhibitor and with known enzyme concentration, an estimate of kcat was available. Taking into account kcat and insensitivity parameters, 30 variants were selected for measurement of substrate saturation kinetic parameters and re-evaluation of insensitivity to tembotrione. The kinetic and insensitivity parameters were determined as described in Example 1, and were multiplied to generate the “trait fitness” parameter. The complete list of variants, i.e., of selected single substitutions in SEQ ID NO:2, analyzed with multiple inhibitors and the results obtained are shown in Table 6. The same set of 30 variants were evaluated for insensitivity to mesotrione, sulcotrione, isoxaflutole (its active diketonitrile form, abbreviated DKN in Table 6) and topramezone.

[5] = Table 7, tembotrione, combinatorial variants
[6] = Table 7, combinatorial variants

Molecule | ON rate ratio [1] | ON × OFF ([2]; Megatable 3, shuffled variants) | ON × OFF × kcat ([2]; Megatable 3, shuffled variants) | ON × OFF [2, 5] | ON × OFF × kcat [2, 5] | OFF rate ratio [3] | kcat ([4]; Megatable 3, shuffled variants) [s⁻¹] | kcat [4, 6] [s⁻¹]
B1 | 0.745 | 0.230 | 4.28 | 0.230 | 4.28 | 0.309 | 0.31 | 0.31
B2 | 0.734 | 0.211 | 3.85 | 0.211 | 3.85 | 0.287 | 0.305 | 0.305
B3 | 0.732 | 0.259 | 4.63 | 0.259 | 4.63 | 0.353 | 0.298 | 0.298
B4 | 0.713 | 0.252 | 5.03 | 0.252 | 5.03 | 0.353 | 0.333 | 0.333
B5 | 0.703 | 0.230 | 4.12 | 0.230 | 4.12 | 0.327 | 0.298 | 0.298
B6 | 0.718 | 0.196 | 3.24 | 0.196 | 3.24 | 0.273 | 0.275 | 0.275
